Among the data in patent US20210380703A1 are optical density values, retold here.

The labels stand for the following.
B1: 368_D06 (antibody, V domains shown)
VH: EVQLLESGGGLVQPGGSLRLSCAASGFTFSSYGMNWVRQAPGKGLEWVSNINYNGGYTGYADSVKGRFTISRDNSKNTLYLQMNSLRAEDTAVYYCARAATWHDTHLDYWGQGTLVTVSS
VL: DIQMTQSPSSLSASVGDRVTITCRASQSILSYVNWYQQKPGKAPKLVIYAATSRHSGVPSRFSGSGSGTDFTLTISSLQPEDFATYYCQQSYENPLTFGGGTKVEIK
B2: 369_E03 (antibody, V domains shown)
VH: EVQLLESGGGLVQPGGSLRLSCAASGFTFSSYGMHWVRQAPGKGLEWVAGINYNGGYTSYADSVKGRFTISRDNSKNTLYLQMNSLRAEDTAVYYCARAATWHDTHLDYWGQGTLVTVSS
VL: DIQMTQSPSSLSASVGDRVTITCRASQSILSYVNWYQQKPGKAPKLLIYAATSLASGVPSRFSGSGSGTDFTLTISSLQPEDFATYYCQQSYENPLTFGGGTKVEIK
B3: 369_B08 (antibody, V domains shown)
VH: EVQLLESGGGLVQPGGSLRLSCAASGFTFDSYGMHWVRQAPGKGLEWVSSINYNGGYTSYADSVKGRFTISRDNSKNTLYLQMNSLRAEDTAVYYCARAATWHDTHLDYWGQGTLVTVSS
VL: DIQMTQSPSSLSASVGDRVTITCRASQSILSYVNWYQQKPGKAPKLLIYAATSRASGVPSRFSGSGSGTDFTLTISSLQPEDFATYYCQQSYESPLTFGGGTKVEIK
B4: 370_B06 (antibody, V domains shown)
VH: EVQLLESGGGLVQPGGSLRLSCAASGFTFSSYGMHWVRQAPGKGLEWVAGINYNGGYTSYADSVKGRFTISRDNSKNTLYLQMNSLRAEDTAVYYCARAATWHDTHLDYWGQGTLVTVSS
VL: DIQMTQSPSSLSASVGDRVTITCRASQSIVSYVNWYQQKPGKAPKLVIYAATSRASGVPSRFSGSGSGTDFTLTISSLQPEDFATYYCQQSYETPLTFGGGTKVEIK
B5: 369_C09 (antibody, V domains shown)
VH: EVQLLESGGGLVQPGGSLRLSCAASGFTFSSYGMHWVRQAPGKGLEWVSSINYNGGYTGYADSVKGRFTISRDNSKNTLYLQMNSLRAEDTAVYYCARAATWHDTHLDYWGQGTLVTVSS
VL: DIQMTQSPSSLSASVGDRVTITCRASQSIVSYLNWYQQKPGKAPKLVIYAATSRHSGVPSRFSGSGSGTDFTLTISSLQPEDFATYYCQQSYDLPLTFGGGTKVEIK
B6: 371_B11 (antibody, V domains shown)
VH: EVQLLESGGGLVQPGGSLRLSCAASGFTFSSYSMHWVRQAPGKGLEWVASINYNSGYTSYADSVKGRFTISRDNSKNTLYLQMNSLRAEDTAVYYCARAATWHDTHLDYWGQGTLVTVSS
VL: DIQMTQSPSSLSASVGDRVTITCRASQSILTYLNWYQQKPGKAPKLLIYAATSRASGVPSRFSGSGSGTDFTLTISSLQPEDFATYYCQQSYELPLTFGGGTKVEIK
B7: 369_C06 (antibody, V domains shown)
VH: EVQLLESGGGLVQPGGSLRLSCAASGFTFSSYSMHWVRQAPGKGLEWVSSINYNGGYKSYADSVKGRFTISRDNSKNTLYLQMNSLRAEDTAVYYCARAATWHDTHLDYWGQGTLVTVSS
VL: DIQMTQSPSSLSASVGDRVTITCRASQSILSYVNWYQQKPGKAPKLLIYAATSRASGVPSRFSGSGSGTDFTLTISSLQPEDFATYYCQQSYDSPLTFGGGTKVEIK
B8: 370_H05 (antibody, V domains shown)
VH: EVQLLESGGGLVQPGGSLRLSCAASGFTFSSYGMHWVRQAPGKGLEWVSNINYNGGYTSYADSVKGRFTISRDNSKNTLYLQMNSLRAEDTAVYYCARAATWHDTHLDYWGQGTLVTVSS
VL: DIQMTQSPSSLSASVGDRVTITCRASQSILSYLNWYQQKPGKAPKLLIYAASSLQSGVPSRFSGSGSGTDFTLTISSLQPEDFATYYCQQSDSLPLTFGGGTKVEIK
B9: 369_C11 (antibody, V domains shown)
VH: EVQLLESGGGLVQPGGSLRLSCAASGFTFSDYGMHWVRQAPGKGLEWVAGINYNGGYTGYADSVKGRFTISRDNSKNTLYLQMNSLRAEDTAVYYCARAATWHDTHLDYWGQGTLVTVSS
VL: DIQMTQSPSSLSASVGDRVTITCRASQSILSYLNWYQQKPGKAPKLVIYAATSRASGVPSRFSGSGSGTDFTLTISSLQPEDFATYYCQQSYDTPLTFGGGTKVEIK
B10: 368_G11 (antibody, V domains shown)
VH: EVQLLESGGGLVQPGGSLRLSCAASGFTFDSYGMHWVRQAPGKGLEWVSGINYNSGYKSYADSVKGRFTISRDNSKNTLYLQMNSLRAEDTAVYYCARAATWHDTALDYWGQGTLVTVSS
VL: DIQMTQSPSSLSASVGDRVTITCRASQSILTYLNWYQQKPGKAPKLLIYAATSRASGVPSRFSGSGSGTDFTLTISSLQPEDFATYYCQQSDNTPLTFGGGTKVEIK
B11: 371_C02 (antibody, V domains shown)
VH: EVQLLESGGGLVQPGGSLRLSCAASGFTFDSYGMHWVRQAPGKGLEWVAGINYNSGYTGYADSVKGRFTISRDNSKNTLYLQMNSLRAEDTAVYYCARAATWHDTHLDYWGQGTLVTVSS
VL: DIQMTQSPSSLSASVGDRVTITCRASQSILTYVNWYQQKPGKAPKLLIYAASSLQSGVPSRFSGSGSGTDFTLTISSLQPEDFATYYCQQSYDTPLTFGGGTKVEIK
B12: 365_G07 (antibody, V domains shown)
VH: EVQLLESGGGLVQPGGSLRLSCAASGFTFDSYGMHWVRQAPGKGLEWVSSINYNGGYTSYADSVKGRFTISRDNSKNTLYLQMNSLRAEDTAVYYCARAANWHDTALDYWGQGTLVTVSS
VL: DIQMTQSPSSLSASVGDRVTITCRASQSIVSYLNWYQQKPGKAPKLLIYAATSRASGVPSRFSGSGSGTDFTLTISSLQPEDFATYYCQQSYDNPLTFGGGTKVEIK
B13: 371_B02 (antibody, V domains shown)
VH: EVQLLESGGGLVQPGGSLRLSCAASGFTFDSYGMNWVRQAPGKGLEWVSNINYNGGYTSYADSVKGRFTISRDNSKNTLYLQMNSLRAEDTAVYYCARAATWHDTHLDYWGQGTLVTVSS
VL: DIQMTQSPSSLSASVGDRVTITCRASQSILTYVNWYQQKPGKAPKLVIYAATSLASGVPSRFSGSGSGTDFTLTISSLQPEDFATYYCQQSYNNPLTFGGGTKVEIK
B14: 369_A12 (antibody, V domains shown)
VH: EVQLLESGGGLVQPGGSLRLSCAASGFTFSSYSMHWVRQAPGKGLEWVASINYNSGYTGYADSVKGRFTISRDNSKNTLYLQMNSLRAEDTAVYYCARAATWHDTHLDYWGQGTLVTVSS
VL: DIQMTQSPSSLSASVGDRVTITCRASQSILTYLNWYQQKPGKAPKLLIYAATSRHSGVPSRFSGSGSGTDFTLTISSLQPEDFATYYCQQSYDLPLTFGGGTKVEIK
B15: 371_D05 (antibody, V domains shown)
VH: EVQLLESGGGLVQPGGSLRLSCAASGFTFDDYGMHWVRQAPGKGLEWVSGINYNGGYTSYADSVKGRFTISRDNSKNTLYLQMNSLRAEDTAVYYCARAATWHDTHLDYWGQGTLVTVSS
VL: DIQMTQSPSSLSASVGDRVTITCRASQSILTYLNWYQQKPGKAPKLLIYAASSLQSGVPSRFSGSGSGTDFTLTISSLQPEDFATYYCQQSYDSPLTFGGGTKVEIK
B16: 370_E12 (antibody, V domains shown)
VH: EVQLLESGGGLVQPGGSLRLSCAASGFTFDSYGMHWVRQAPGKGLEWVAGINYNGGYTSYADSVKGRFTISRDNSKNTLYLQMNSLRAEDTAVYYCARAATWHDTHLDYWGQGTLVTVSS
VL: DIQMTQSPSSLSASVGDRVTITCRASQSILSYVNWYQQKPGKAPKLLIYAATSRASGVPSRFSGSGSGTDFTLTISSLQPEDFATYYCQQSYENPLTFGGGTKVEIK
B17: 369_A04 (antibody, V domains shown)
VH: EVQLLESGGGLVQPGGSLRLSCAASGFTFDSYGMHWVRQAPGKGLEWVASINYNGGYKSYADSVKGRFTISRDNSKNTLYLQMNSLRAEDTAVYYCARAATWHDTHLDYWGQGTLVTVSS
VL: DIQMTQSPSSLSASVGDRVTITCRASQSIVSYVNWYQQKPGKAPKLVIYAATSLASGVPSRFSGSGSGTDFTLTISSLQPEDFATYYCQQSYDLPLTFGGGTKVEIK
B18: 369_B07 (antibody, V domains shown)
VH: EVQLLESGGGLVQPGGSLRLSCAASGFTFDSYGMHWVRQAPGKGLEWVANINYNGGYKSYADSVKGRFTISRDNSKNTLYLQMNSLRAEDTAVYYCARAATWHDTHLDYWGQGTLVTVSS
VL: DIQMTQSPSSLSASVGDRVTITCRASQSIVSYVNWYQQKPGKAPKLVIYAATSLASGVPSRFSGSGSGTDFTLTISSLQPEDFATYYCQQSYDLPLTFGGGTKVEIK
B19: 368_E08 (antibody, V domains shown)
VH: EVQLLESGGGLVQPGGSLRLSCAASGFTFDSYGMHWVRQAPGKGLEWVANINYNSGYTGYADSVKGRFTISRDNSKNTLYLQMNSLRAEDTAVYYCARAATWHDTHLDYWGQGTLVTVSS
VL: DIQMTQSPSSLSASVGDRVTITCRASQSILSYVNWYQQKPGKAPKLVIYAATSLHSGVPSRFSGSGSGTDFTLTISSLQPEDFATYYCQQSYETPLTFGGGTKVEIK
B20: 371_A05 (antibody, V domains shown)
VH: EVQLLESGGGLVQPGGSLRLSCAASGFTFSSYGMHWVRQAPGKGLEWVSNINYNGGYKSYADSVKGRFTISRDNSKNTLYLQMNSLRAEDTAVYYCARAATWHDTHLDYWGQGTLVTVSS
VL: DIQMTQSPSSLSASVGDRVTITCRASQSILTYLNWYQQKPGKAPKLLIYAATSRASGVPSRFSGSGSGTDFTLTISSLQPEDFATYYCQQSDNLPLTFGGGTKVEIK
B21: 368_H03 (antibody, V domains shown)
VH: EVQLLESGGGLVQPGGSLRLSCAASGFTFDDYSMHWVRQAPGKGLEWVASINYNGGYTGYADSVKGRFTISRDNSKNTLYLQMNSLRAEDTAVYYCARAATWHDTHLDYWGQGTLVTVSS
VL: DIQMTQSPSSLSASVGDRVTITCRASQSILSYVNWYQQKPGKAPKLVIYAVTSRHSGVPSRFSGSGSGTDFTLTISSLQPEDFATYYCQQSYSNPLTFGGGTKVEIK

For the experiment, the target named is human Fc (human). Put plainly: ELISA, negative control. In general terms: In an ELISA, binding on a coated surface is turned into a signal by an enzyme label.
In the case of B1, the optical density was found to be 0.265 OD.

For B2, the optical density stood at 0.63 OD. The figure for B3 is 0.309 OD; for B4 it is 0.441 OD; for B5 it is 0.32 OD. In the case of B6 it was 0.549 OD; in that of B7, 0.414 OD. The figure for B8 is 0.364 OD; for B9 it is 0.378 OD. Regarding B10, the optical density was 0.306 OD. In the case of B11 it was 0.372 OD.

The molecule B12 registered an optical density of 0.331 OD.

In turn, B13 gave an optical density of 0.449 OD.

Molecule B14 yielded an optical density of 0.461 OD.

Consider B15, for which the optical density was determined as 0.339 OD. The figure for B16 is 0.656 OD; for B17 it is 0.353 OD; for B18 it is 0.319 OD. B19 yielded an optical density of 0.255 OD. B20: the optical density is 0.369 OD. The molecule B21 came in with an optical density of 0.343 OD.
